Laboratory results reported in article PMC8000976.

Molecular target: full-length dengue virus serotype 1 (DENV1) NS1 (dengue virus serotype 1 (DENV1))
Experiment: crystal structure

Substance: full-length dengue virus serotype 1 (DENV1) NS1 (natural protein)
- stoichiometry N: 2
